Drawing on patent publication US20170267750A1, “Method of Treating Ovarian and Renal Cancer Using Antibodies Against T Cell Immunoglobulin Domain and Mucin Domain 1 (TIM-1) Antigen” (Celldex Therapeutics, Inc., priority 2005, published 2017), this text covers CAKI-1 cell death, clonogenic assay with AE-conjugated antibody, maximum dose and Kd for three molecules.

Test [1] has as its target TIM-1 (T cell, immunoglobulin domain and mucin domain 1), cell membrane-bound (human) (UniProt Q96D42). The experiment in a line: cell-based or functional assay.
In test [2] the target is TIM-1 antigen, soluble extracellular domain of TIM-1 (CG57008-02) with a V5-HIS tag (human) (UniProt Q96D42). The experiment in a line: BIAcore 2000, 25 C, mAb captured on goat anti-human surface, TIM-1 antigen injected at 292 nM. (In general: SPR reads the build-up and loss of mass on a sensor chip optically.)
Sequence of TIM-1 antigen, soluble extracellular domain of TIM-1 (CG57008-02) with a V5-HIS tag (human) (Q96D42 other isoform, or with tags, fused parts or gaps): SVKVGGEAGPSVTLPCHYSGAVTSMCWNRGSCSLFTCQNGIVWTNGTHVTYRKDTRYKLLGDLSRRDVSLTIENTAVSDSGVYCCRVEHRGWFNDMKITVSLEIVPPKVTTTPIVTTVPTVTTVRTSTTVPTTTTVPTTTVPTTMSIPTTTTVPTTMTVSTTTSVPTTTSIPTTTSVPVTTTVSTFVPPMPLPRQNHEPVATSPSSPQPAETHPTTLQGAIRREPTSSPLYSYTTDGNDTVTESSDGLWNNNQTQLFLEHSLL

Where only a bound is given, the exact number is not on record here.

Sequence of TIM-1 (T cell, immunoglobulin domain and mucin domain 1), cell membrane-bound (human) (Q96D42 21-364): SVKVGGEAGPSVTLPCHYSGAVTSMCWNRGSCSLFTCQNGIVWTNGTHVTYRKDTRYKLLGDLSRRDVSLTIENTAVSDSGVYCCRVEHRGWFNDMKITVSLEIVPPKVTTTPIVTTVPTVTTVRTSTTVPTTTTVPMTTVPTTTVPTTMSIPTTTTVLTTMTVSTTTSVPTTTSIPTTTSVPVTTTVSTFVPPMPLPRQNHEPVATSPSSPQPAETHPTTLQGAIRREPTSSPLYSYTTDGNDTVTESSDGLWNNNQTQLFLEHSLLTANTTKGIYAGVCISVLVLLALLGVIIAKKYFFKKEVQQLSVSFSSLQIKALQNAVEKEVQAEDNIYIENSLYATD

B1: Auristatin E (AE)-conjugated anti-TIM-1 mAb 2.59.2 (antibody, V domains shown)
VH: NNNNNQSGPRLVKPSQTLSLTCTVSGGSISSDGYYWSWIRQHPGKGLEWIGYIYYSGSTFYNPSLKSRVAISVDTSKNQFSLKLSSVTAADTAVYYCARESPHSSNWYSGFDCWGQGTLVTVSS
VL: NNNNTQSPDFQSVTPKEKVTITCRASQSIGSRLHWYQQKPDQSPKLLIKYASQSFSGVPSRFSGSGSGTDFTLTINSLEAEDAATYYCHQSSNLPFTFGPGTKVDIKR
As to B1, in test [1], the CAKI-1 cell death, clonogenic assay with AE-conjugated antibody, maximum dose was greater than 90%.

B2: Auristatin E (AE)-conjugated anti-TIM-1 mAb 2.70.2 (antibody, human IgG4, kappa, V domains shown)
VH: QVQLVESGGGVVQPGRSLRLSCAASGFIFSRYGMHWVRQAPGKGLKWVAVIWYDGSNKLYADSVKGRFTISRDNSKNTLYLQMNSLRAEDTAVYYCARDYYDNSRHHWGFDYWGQGTLVTVSS
VL: DIVMTQTPLSLPVTPGEPASISCRSSRSLLDSDDGNTYLDWYLQKPGQSPQLLIYTLSYRASGVPDRFSGSGSGTDFTLKISRVEAEDVGVYYCMQRVEFPITFGQGTRLEIKR
B2 showed a CAKI-1 cell death, clonogenic assay with AE-conjugated antibody, maximum dose in test [1] greater than 90%.

B3: anti-TIM-1 monoclonal antibody 2.54 (antibody, V domains shown)
VH: QVQLEQSGGGVVQPGRSLRLSCAASGFTFTNYGLHWVRQAPGKGLDWVAVIWYDGSHKFYADSVKGRFTISRDNSKNTLFLQMNSLRAEDTAVYYCTRDLDYWGQGTLVTVSS
VL: ETQLTQSPGTLSLSPGERVTLSCRASQSVSNNYLAWYQQKPGQAPRLLIYGASSRATGIPDRFSGSGSGTDFTLTISRLEPEDCAECYCQQYGSSLPLTFGGGTKVEIKR
B3: the Kd (in general, a measure of binding affinity in units of concentration) in test [2] came out at 3.35 nM.
